From PMC4726114, “DSF Guided Refolding As A Novel Method Of Protein Production” (Scientific Reports, 2016)

Target: the molecule itself
Assay: SEC; analytical size-exclusion chromatography of refolded irisin; apparent molecular weight 28 kDa

B1: human irisin (FNDC5 residues 32-143) (natural protein, UniProt Q8NAU1 80-191, looked up)
chain: DSPSAPVNVTVRHLKANSAVVSWDVLEDEVVIGFAISQQKKDVRMLRFIQEVNTTTRSCALWDLEEDTEYIVHVQAISIQGQSPASEPVLFKTPREAEKMASKNKDEVTMKE
notes: irisin, human FNDC5 residues 32-143
- stoichiometry N: 2
